According to patent US6890900B2, “Methods for treating or preventing diseases of the oral cavity” (Campina B.V., priority 2001, dated 2005):

Tested on: oral culture (oral swab from a healthy adult, oral flora)
Test: LF/GMP assay, viable plate count (pour plate) of broth culture
Assay type: cell-based, Streptococcus salivaris
Design: key to MIBC: NCF: No Effective Concentration Found
Conditions: 35° C.; for Colony Counts: viable plate count
Experimental: Bacterial strains used in this study were Pseudomonas aeruginosa ATCC #27853, Streptococcus mutans ATCC #33535, Streptococcus pyogenes ATCC #19615, and Actinobacillus haemophilus ATCC #43717 and an oral swab from a healthy adult. Bacteria were grown on blood/BHT media (Brain Heart Infusion Agar with protease peptone, sodium chloride, glucose, di-sodium phosphate, and agar, Oxoid, Hampshire England, Sheep's Blood) in the presence of 5% CO2 at 35° C. […] The 0.5 McFarland value is approximately equivalent to 1.0×10^8 organisms. One ml of the appropriate bacterial dilution was taken using a sterile pipette and introduced into 8 ml of sterilized BHI broth. […] By pipette, 9 ml of broth was placed into medium test tubes as means of a control and 8 ml test tubes were prepared for the concentration tests). […] This solution was filtered through a 0.45 μm filter. […] Example for calculating 2,500 ppm dilution (1,000 ppm=0.1%): [formula] [formula] [formula] To study the kinetics of LF/GMP binding, each strain of bacteria was taken separately with a sterile pipette and placed into an 8 ml BHI broth test tube, vortexed, and incubated in the presence of 1 ml of LF or GMP for 18-24 hours at 35° C. with 5% CO2. In the combination procedure, 0.5 ml of both LF and […] were taken as 1 ml inoculations. This technique was used to determine the density of living (viable) cells in inoculated broth cultures. It involves plating a bacterial sample and counting the resulting colonies after incubation. A serial dilution of the original broth was taken prior to plating. The serial dilution is necessary to reduce the density of organisms in order to create countable plates. Only plates containing between 25 and 250 colonies are considered countable. Cell densities are traditionally recorded as CFU (colony forming unit)/ml. […] Formula: [formula] The assays required the use of a pour plate technique. The pour plate technique adds a step to the conventional serial dilution. The 1 ml of dilution is added to a warm emulsion of dilute nutrient (BHI) agar to produce an agar overlay in the petri plates. After incubation, the bacterial growth covers the entire plate but individual cellular movement has been restricted by the soft agar overlay. Each colony formed is assumed to have originated from a single CFU. The plates were gently mixed, inverted, and incubated for 18-24 hour at 35° C. There is a mixture of microorganisms obtained in “normal oral flora.” Testing a swab taken from a healthy mouth cavity aided in the identification of the most common mouth flora. Experiments were conducted with the mouth culture to determine the antimicrobial effects of LF and GMP. Oral cultures were grown on BHI agar with added sheep's blood for 24 hours at 35° C. 5% CO2. […] These plates were incubated for another 24 hours. Here, isolated colonies were taken and were streaked on a BHI/Blood plate for growth of a pure culture. Streaking a plate produces isolated growth of microbial species in a mixed culture sample. Once isolated, pure cultures can be tested for species identification. The isolated colonies were Gram-stained to distinguish between Gram-positive and Gram-negative cells. The Gram stain is a differential stain in which a decolorization step occurs between the application of two basic stains. The next step was a catalase test to identify the organisms that produce the enzyme catalase. It was used to differentiate members of the catalase-positive Micrococcaceae and Staphylococci from the catalase-negative Streptococcaceae. Hydrogen peroxide was added to the bacteria and observed for a reaction (evidence of bubbles being formed). In the oral culture, three isolated colonies were tested for identification from a swabbed mouth cavity. […] This negative-catalase reaction was a confirmation of a streptococcus species. The API 20 Strep test was done on all three pure cultures to identify each species. The numbers were the results of the API 20 test. […]

B1: LF: Bovine lactoferrin, iron-binding glycoprotein purified from milk, provided by DMV International (protein, UniProt P24627 20-708, looked up)
Lactotransferrin: APRKNVRWCTISQPEWFKCRRWQWRMKKLGAPSITCVRRAFALECIRAIAEKKADAVTLDGGMVFEAGRDPYKLRPVAAEIYGTKESPQTHYYAVAVVKKGSNFQLDQLQGRKSCHTGLGRSAGWIIPMGILRPYLSWTESLEPLQGAVAKFFSASCVPCIDRQAYPNLCQLCKGEGENQCACSSREPYFGYSGAFKCLQDGAGDVAFVKETTVFENLPEKADRDQYELLCLNNSRAPVDAFKECHLAQVPSHAVVARSVDGKEDLIWKLLSKAQEKFGKNKSRSFQLFGSPPGQRDLLFKDSALGFLRIPSKVDSALYLGSRYLTTLKNLRETAEEVKARYTRVVWCAVGPEEQKKCQQWSQQSGQNVTCATASTTDDCIVLVLKGEADALNLDGGYIYTAGKCGLVPVLAENRKSSKHSSLDCVLRPTEGYLAVAVVKKANEGLTWNSLKDKKSCHTAVDRTAGWNIPMGLIVNQTGSCAFDEFFSQSCAPGADPKSRLCALCAGDDQGLDKCVPNSKEKYYGYTGAFRCLAEDVGDVAFVKNDTVWENTNGESTADWAKNLNREDFRLLCLDGTRKPVTEAQSCHLAVAPNHAVVSRSDRAAHVKQVLLHQQALFGKNGKNCPDKFCLFKSETKNLLFNDNTECLAKLGGRPTYEEYLGTEYVTAIANLKKCSTSPLLEACAFLTR
50 ppm, 24 h
  Colony Counts: 4.8 × 10^8
100 ppm, 24 h
  Colony Counts: 4.2 × 10^8
250 ppm, 24 h
  Colony Counts: 4.3 × 10^8
500 ppm, 24 h
  Colony Counts: 4.0 × 10^8
1,000 ppm, 24 h
  Colony Counts: 3.9 × 10^8
3,000 ppm, 24 h
  Colony Counts: 3.4 × 10^8
Lactoferrin/GMP 250/0 ppm (LF alone)
  Total Log Reduction: 0 log
Lactoferrin/GMP 3,000/0 ppm (LF alone)
  Total Log Reduction: 0 log
At the MIBC, vs control
  # Log Reductions: 0 log
Single agent, any tested concentration
  effect on growth (in words): not effected
Single agent, 24 h, 5% CO2
  MIBC: NCF
